Test results published in paper PMC2714321, “DNA binding kinetics of two response regulators, PlnC and PlnD, from the bacteriocin regulon of Lactobacillus plantarum C11”.

T1: f-PlnD (Lactobacillus plantarum C11, UniProt Q48830 1-247)
T1 sequence: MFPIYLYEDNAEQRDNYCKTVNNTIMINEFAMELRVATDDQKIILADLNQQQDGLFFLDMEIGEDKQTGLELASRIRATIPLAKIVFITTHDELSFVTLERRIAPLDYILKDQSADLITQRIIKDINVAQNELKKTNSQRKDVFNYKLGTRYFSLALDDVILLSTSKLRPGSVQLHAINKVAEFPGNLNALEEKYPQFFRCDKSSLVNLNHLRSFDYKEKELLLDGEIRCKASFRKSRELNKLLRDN

T2: f-PlnC (Lactobacillus plantarum C11, UniProt Q48829 1-247)
T2 sequence: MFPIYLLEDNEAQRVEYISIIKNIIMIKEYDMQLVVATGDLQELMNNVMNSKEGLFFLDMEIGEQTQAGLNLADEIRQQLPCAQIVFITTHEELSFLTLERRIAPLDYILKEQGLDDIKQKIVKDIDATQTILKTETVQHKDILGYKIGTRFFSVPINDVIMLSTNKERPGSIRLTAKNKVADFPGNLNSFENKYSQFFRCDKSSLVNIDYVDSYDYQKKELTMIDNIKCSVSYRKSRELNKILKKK


What was measured:
Conditions in all cases: protein: native; tags: N-terminal FLAG; chain copies: 2; label: biotin on forward strand; blunt
f-PlnD = target: T1, f-PlnD; test: SPR; site 1 (KD1), heterogeneous ligand model; SPR (Biacore 3000, SA chip): 20 mM Tris-HCl pH 8.0, 100 mM NaCl, 5 mM MgCl2, 1 mM EDTA, 0.025% Triton X-100, 25°C; signals corrected by subtraction of control DNA (S8/rc) reference cell, no outcome reported for it
f-PlnC [1] = target: T2, f-PlnC; test: SPR; site 1 (KD1), heterogeneous ligand model; Discussion gives 1e-7 range; SPR (Biacore 3000, SA chip): 20 mM Tris-HCl pH 8.0, 100 mM NaCl, 5 mM MgCl2, 1 mM EDTA, 0.025% Triton X-100, 25°C; signals corrected by subtraction of control DNA (S8/rc) reference cell, no outcome reported for it
f-PlnC [2] = target: T2, f-PlnC; test: SPR; site 1 (KD1), heterogeneous ligand model; SPR (Biacore 3000, SA chip): 20 mM Tris-HCl pH 8.0, 100 mM NaCl, 5 mM MgCl2, 1 mM EDTA, 0.025% Triton X-100, 25°C; signals corrected by subtraction of control DNA (S8/rc) reference cell, no outcome reported for it
f-PlnC [3] = target: T2, f-PlnC; test: SPR; site 1 (KD1), ka fitted locally; SPR (Biacore 3000, SA chip): 20 mM Tris-HCl pH 8.0, 100 mM NaCl, 5 mM MgCl2, 1 mM EDTA, 0.025% Triton X-100, 25°C; signals corrected by subtraction of control DNA (S8/rc) reference cell, no outcome reported for it
f-PlnC [4] = target: T2, f-PlnC; test: SPR; single site, Langmuir 1:1 model; SPR (Biacore 3000, SA chip): 20 mM Tris-HCl pH 8.0, 100 mM NaCl, 5 mM MgCl2, 1 mM EDTA, 0.025% Triton X-100, 25°C; signals corrected by subtraction of control DNA (S8/rc) reference cell, no outcome reported for it

| Binder | Kd (f-PlnD) [nM] | Kd (f-PlnC [2]) [nM] | further results |
| --- | --- | --- | --- |
| PplnA (dsDNA) DNA 1: CATGGTGATTCACGTTTAAATTTAAAAAATGTACGTTAATAGAAATAATT DNA 2: AATTATTTCTATTAACGTACATTTTTTAAATTTAAACGTGAATCACCATG | 1500 | – | Kd (f-PlnC [1]): 1500 nM |
| PplnM (dsDNA) DNA 1: TGAATTATTGTACGATAATATCTAAAAATATTACGTTTATAAAAATATCG DNA 2: CGATATTTTTATAAACGTAATATTTTTAGATATTATCGTACAATAATTCA | 560 | 380 | – |
| PplnJ (dsDNA) DNA 1: ACTTTCAAGTTACGTTAAATCGATTAAATAGTACGATAACAAATTTAAAA DNA 2: TTTTAAATTTGTTATCGTACTATTTAATCGATTTAACGTAACTTGAAAGT | 12000 | – | – |
| PplnG (dsDNA) DNA 1: GCCTGATGAGGACATTTATCATAAAATTATGTACGTTAATAGATAGTTGG DNA 2: CCAACTATCTATTAACGTACATAATTTTATGATAAATGTCCTCATCAGGC | 14000 | – | Kd (f-PlnC [3]): 170 nM |
| PplnE (dsDNA) DNA 1: ATTGGTATTTGACGTTAAGAGAACGTTTTTTTACTTTTATAATTTTTTCA DNA 2: TGAAAAAATTATAAAAGTAAAAAAACGTTCTCTTAACGTCAAATACCAAT | – | 210 | – |
| PplnAΔL (dsDNA) DNA 1: CATGGTGATTTTAAAATTTATTTAAAAAATGTACGTTAATAGAAATAATT DNA 2: AATTATTTCTATTAACGTACATTTTTTAAATAAATTTTAAAATCACCATG | – | – | Kd (f-PlnC [4]): 300 nM |
